This data set is described as follows: yeast display, Sf9 membrane polyspecificity reagent, FACS + sequencing; frameworks hold sequencing errors. In a few lines:
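A synthetic nanobody library was expressed on Saccharomyces cerevisiae BJ5465 by galactose induction for 36–48 hours. The library was stained for 1 hour at 4 °C with 10% biotinylated, detergent-solubilized Sf9 membrane reagent and enriched with streptavidin microbeads before FACS. Low and high (top ~1%) gates were set on anti-HA fluorescence for expression and streptavidin fluorescence for reagent binding, and each polyreactivity label reflects the gate of origin.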
Consider “QVQLVESGGGLVQAGGSIRLSCAASGFISYYYAMGWYRQAPGKERELVAAITKSGGSTYYADSVKGRFTISRDNAKNTVYLQMNSLKPEDTAVDYCAAVRSTRNSTSRLYGYWGQGTQVNVSS”, for which the “polyreactivity (PSR sort gate)” value is given as “low polyreactivity”.

For the sequence “QVQLVESGGGLVQAGGSLRLTCAASGRIFRVNGMGWYRQAPWKERDLVAPIRRSGGSTYYADSVKGRFTISRDNSKNNVYLQMKSLKPEDTAVYYCAAPVLLSSYTRYDSWGQGTQVTVSS”, the “polyreactivity (PSR sort gate)” value is “high polyreactivity”.

Turning to “QVQLVESGGGLVQAGGSLRLSCAASGITFYYYAMGWYRQAPGKERELVAAIDTDGSTYYADSVKGRFTISRDNAKNTVYLQMNSLKPEDTAVYYCAAEIEYYPYSGYIYDYWGQGTQVTVSS”, the “polyreactivity (PSR sort gate)” value is recorded as “high polyreactivity”.

Turning to “QVQLVESGGGLVQAGGSLRLSCAASGNTFRWYAMGWYRQAPGKERELVATISRRGGITYYADSVKGRFTISRDNAKNTVYFQMNSLKPEDTAVYYCAAYSGSGLGAYDYWGQGTQVTVSS”, the “polyreactivity (PSR sort gate)” value is “high polyreactivity”.

As for “QDQLVESGGGLVQAGGSLRLSCAASGRTFGDKALGWYRQAPGKERELVAAISWSGGRTYYADSVKGRFTISRDYGKNTVYLQMNSLKPEDTAVYYCAARNNRYPLYNYWGQGTQVTVSS”, the “polyreactivity (PSR sort gate)” value is on record as “low polyreactivity”.

For “QVQLVESGGGLVQAGGSLRLSCAASGRIFDFNAMGWYRQAPGKEREFVAAIRTSGGDSTYYADSVKGRFTISRDNAKNTVYLQMNSLKPEDTAVYYCAKTVWWYYRYPFDYWGQGTQVTVSS”, the “polyreactivity (PSR sort gate)” value is “low polyreactivity”.

As to “QVQLVESGGGLVQAGGSLRLICAASGRTFGGNAMGWYRQAPGKERELVAAISSGGSTNYADSVNGRFTISRDNAKNTVYFLMNSLKPEDTAVYYCAADSKIGSFDSWGQGTQVTVSS”, the “polyreactivity (PSR sort gate)” value is “low polyreactivity”.

For the sequence “QVQLEESGGGLVQAGGSLRLSCAASGSTFANYAMGWYRQAPRKERELVAGISWRGGRTYYADSVMGRFTISRDNGKNTVYLQINILKPEDTAVYYCAVVHQTFTGDYWGQGTQVTVSS”, the “polyreactivity (PSR sort gate)” value was “high polyreactivity”.

Turning to “QVQLVESGGGLVQAGGSLRLSSASSGSTSWIYAMGWYRPEPGKERELVAAISGRDGSTNYADSVKGRFTISRDNAKNTVYLQMIRVKPEDTAVYDCNATGRSFKRYGGDYWGQGTQVTVSS”, the “polyreactivity (PSR sort gate)” value is listed as “high polyreactivity”.

With “QVQLEEKRRGLVQAGGSLRLSCASSGRTFVTNAMGRYRQAPGKERELVAAISSSGGSTYYADSVKGRFTISRDNAMNTVYLQMNSLKPEDTAVYYCAVAGQTKGQYDYWGQGTQVTVSS”, the “polyreactivity (PSR sort gate)” value is “low polyreactivity”.

Turning to “QVQLVESGGGLVQAGGSLRLICAASGSIFRKNAMGWYRQAPGKERELVAAITGTGRTTYADSVMGRFTISRDNAKNTVYLQRNSLKPEDTAVYYCAADVNYYQHRLYYWGQGTQVTVSS”, the “polyreactivity (PSR sort gate)” value is “low polyreactivity”.

For the sequence “QVQLVESGGGLVQAGGTLRLSCAASGSIFGKNAMGWYRQARGKERELVAAITWSGGSTYYADSVKGRFTISRDNAKNTVSLQINSLKPEDTAVYYCNAVRVRVTSHRIRQLDYGYWGQGTQVTVSS”, the “polyreactivity (PSR sort gate)” value is on record as “low polyreactivity”.

Turning to “QVQLVESGGGLVQAGGSLRLSCAASGSTFRWYAMGWYRQAPGKERELVAAISRSGGNTYYADSVKGRFTISRDNAKNTVYLQMNSLKPEDTAVYYCAARKLYGSPEHGYWGQGTQVTVSS”, the “polyreactivity (PSR sort gate)” value is given as “high polyreactivity”.

For “QVQLVESGGALVQAGGSLRLSCAASGRTFYFYTMGWYRQAPGKERDLVAAISWSGGSTYYADSVKGRFTISRDTAKNNFYLQMKRLKPEDTAVYYCAASSRWEQSKDQFYYWGQGTHVTVSS”, the “polyreactivity (PSR sort gate)” value was “low polyreactivity”.

On to “QVQLVESGGGLVQAGGRLRLSCAASGFKYAMGWYRQGPGKDRELVAAISSGGITSYADSVKGRFTISRDNAKNTVYLQMNSLKPEDTAVYYCNARLRHSQYAYYYWGQGTQVTVSS”, for which the “polyreactivity (PSR sort gate)” value was “high polyreactivity”.

For “QVQLVESGGGLVQAGGSLRLSCAASGSTFYPYTMGWYRQAPGKERELFAAITSGGNTNYADSVKGRFTISRDNAKNTVYLQMNSLKPEDTAVYYCNAEPEGTTGNYFPYDYWGQGTQVTVSS”, the “polyreactivity (PSR sort gate)” value is listed as “low polyreactivity”.

Regarding “QVQLVESGGGLVQAGGSLRLICAASGFIFYPYAMGWYRQAPGKERELVAVITSGGRTYYADSVKGRFTISRDNAKNTVYLQMNSLKPEDTAVYYCNADTFQWWDIADVYVIVKYGYWGQGTQVTVSS”, the “polyreactivity (PSR sort gate)” value is on record as “low polyreactivity”.

Regarding “QVQLVESGGGLVQAGGSLRLSCAASGSTFQYNAMAWYRQAPGKEREFVAAITSSGGSTYYADSVKGRFTISRDNAKNTVYLQMNSLKPEDTAVYYCNKRRTRRYDYWGQGTQVTVSS”, the “polyreactivity (PSR sort gate)” value is listed as “high polyreactivity”.

In the case of “QVQLVESGGGLVQAGGSLRLSCAASGIIFYQYAMGWYRQAHGKERELVAAISSRGGSTYYADSVKGRFTISLDNAKNTVYLLMNSLKPEDTAVYYCAAGSTGSTDGYWGQGTQVTVSS”, the “polyreactivity (PSR sort gate)” value was “high polyreactivity”.

For “QVQLVESWGGLVQAGGSLRLSCAASGSIFDFNGMGCYRQAPGKERELVAAISGGGGSTYYADSVKGRFTISRDNAKNTVYLQMNSLKPEDTAVYYCAAAYSTYRFIYEYWGQATQVTVSS”, the “polyreactivity (PSR sort gate)” value is given as “high polyreactivity”.

As for “QVQLVESVGGLVQAGGSLRLSCAASGSTFTSNAMGWYRQAPGKEREFVAAISVGGGITYYADSVKGRFTISRDNAKNTVYLQMNSLKPEDTAVYYCAADAWSVILWREMDYWGQGTQVTVSS”, the “polyreactivity (PSR sort gate)” value is “low polyreactivity”.

For “QVQLVESGGGLVQAGGSLRLSCAASGSIFGSYAMGWYRQAPGKERELVAVITSSGNTKYADSVKGRFTISRDNAKNTVYLQMNSLKPEDTAVYYCAARFITWCSQYSFRSMDYWGQGTQVTVSS”, the “polyreactivity (PSR sort gate)” value is reported as “high polyreactivity”.

For “QVQLVESGGGLVQAGGSLRLSCAASRSIFRIYAMGWYRQAPGKERELVAGISKSGGSTYYADSVKGRFTISRDNAKNTVYLQMNSLKPEDTAVYYCNAGYNWSGLAVGRYGYDSWGQGTQVTVSS”, the “polyreactivity (PSR sort gate)” value is on record as “low polyreactivity”.

For “QVQLVESGGGLVQAGGSLRLICAASGTIFSDNEMGRYRQAPGKEREFVADISSDGSTYYADSVKGRFTISRDNAKNTVYLQMNSLKPEDTAVYYCDADPIFSLYYHYGHFDYWGQGTQVTVSS”, the “polyreactivity (PSR sort gate)” value is “low polyreactivity”.

In the case of “QVQLVESGGGLVQAGGSLRLSCAASGITFVWYDMGGYRQAPGKEREFVAVISKRGGSTYYADSVKGRFTISRDNAKNTVYLQMNSLKPEDTAVYYCAASYNLYRRYYYWGQGTQVTVSS”, the “polyreactivity (PSR sort gate)” value was “high polyreactivity”.

Turning to “QVQLVESGGGLVQAGGSLRLSCAASGSTFQRNAMGWYRQAPGKERELVAVITRRGASTYYADSVKGRFTISRDYEKNTVYLQMKSLKAEDTAVYYCNKVPYGRDHHLLFDYWGQGTQVTVSS”, the “polyreactivity (PSR sort gate)” value is “high polyreactivity”.

As for “QVQLVESGGGLVQAGGSLRLSCAASGRIFTYNTMGWYRQAPGKERELVAAISGSGGITYYADSVKGRFTISRDNAKNTVYLQMNSLKPEDTAVYYCNTVPLYVSRYPYDYWGQGTQVTVSS”, the “polyreactivity (PSR sort gate)” value is listed as “low polyreactivity”.

With “QVQLVESGGGLVQAGGSLRLSCAASGRTFRPYAMGWYRQAPGKERQFVAAISSSGGSTYYADSVKGRFSISRDNAKNTVYLLMNSLKPEDTAVYYCATGRKNAAQRWGYYYWGQGTQVTVSS”, the “polyreactivity (PSR sort gate)” value is listed as “high polyreactivity”.

For the sequence “QVQLVESGGGLVQAGGSLRLICAASGRTFAPYAMGWYRQAPGKEMQLVAAISSGGGNTYYADSVKGRFTISRDNAKNTVYLQMNSLKPEDTAVYYCNAAQRRGGLGYWGQGTQVTVSS”, the “polyreactivity (PSR sort gate)” value was “high polyreactivity”.

Turning to “QVQLVESGGGLVQAGGSLRLSCAASGRTFRYYAMGWYREAPGKERELVAAISSSGDRTYYADSVKGRFTISRDNAKNTVYVQMNSLKPEDTAVYYCAKDSYRRYWGQGTQVTVSS”, the “polyreactivity (PSR sort gate)” value is given as “high polyreactivity”.

For the origin of these results see the nanobody polyreactivity screen of Harvey et al. (2022).
